From patent publication US20180194862A1

Biological target: human CD40 on cells (HEK293 stable transfectants, HEK-Blue CD40 cells, human B cells, monocytic cells, dendritic cells) (human) (UniProt P25942)
Assay: cell-based or functional assay

Chain of human CD40 on cells (HEK293 stable transfectants, HEK-Blue CD40 cells, human B cells, monocytic cells, dendritic cells) (human) (P25942 21-277 limits assumed): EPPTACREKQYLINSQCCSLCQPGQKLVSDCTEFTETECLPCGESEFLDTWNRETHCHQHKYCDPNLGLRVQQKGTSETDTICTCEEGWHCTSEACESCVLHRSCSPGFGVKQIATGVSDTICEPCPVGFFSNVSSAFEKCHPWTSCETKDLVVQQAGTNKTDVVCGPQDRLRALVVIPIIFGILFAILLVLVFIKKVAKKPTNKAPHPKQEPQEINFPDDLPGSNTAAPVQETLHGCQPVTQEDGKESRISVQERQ

- Monocyte activation (THP1-Xblue, OD655): 0.12 OD655
- moDC activation (IL-12p70): 139 pg/mL
Substance: anti-human CD40 G28-5 (mouse IgG1) (Biolegend) (antibody)
